What was measured:
[1] = target: T1, human recombinant monoacylglycerol lipase (hMAGL) (Homo sapiens, UniProt Q99685); assay: fluorogenic hydrolysis at […], normalized to 1c; format: biochemical
T1 construct: gene MGLL
T1 sequence (Q99685 1-303): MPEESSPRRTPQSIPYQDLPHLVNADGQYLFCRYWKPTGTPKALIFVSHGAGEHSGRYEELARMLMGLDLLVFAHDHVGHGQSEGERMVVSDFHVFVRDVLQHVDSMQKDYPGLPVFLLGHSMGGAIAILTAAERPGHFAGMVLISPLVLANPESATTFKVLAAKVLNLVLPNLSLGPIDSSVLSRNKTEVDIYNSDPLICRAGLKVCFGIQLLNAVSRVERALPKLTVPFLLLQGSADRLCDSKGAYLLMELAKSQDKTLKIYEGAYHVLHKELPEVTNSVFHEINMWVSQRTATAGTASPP

[2] = target: T1, human recombinant monoacylglycerol lipase (hMAGL); assay: fluorogenic assay with substrate 1c, […] min pre-incubation; format: biochemical
[3] = substrate: CCCCC(CC)C(=O)Oc1ccc2nc3ccc(=O)cc-3oc2c1; assay: fluorogenic hydrolysis kinetics (Km), low Vmax; format: biochemical, Homo sapiens
[4] = substrate: CCCCCCC(CCCC)C(=O)Oc1ccc2nc3ccc(=O)cc-3oc2c1; assay: fluorogenic hydrolysis kinetics (Km), very low Vmax; format: biochemical, Homo sapiens
purified protein = substrate: CCCCCCCC(=O)Oc1ccc2nc3ccc(=O)cc-3oc2c1; assay: purified protein; format: biochemical, Homo sapiens
[5] = substrate: CCCCC(C)C(=O)Oc1ccc2nc3ccc(=O)cc-3oc2c1; assay: fluorogenic hydrolysis kinetics (Km); format: biochemical, Homo sapiens
[6] = substrate: CCCCCCCCCCCC(=O)Oc1ccc2nc3ccc(=O)cc-3oc2c1; assay: fluorogenic hydrolysis kinetics (Km); format: biochemical, Homo sapiens
[7] = substrate: CCCCCCCC/C=C\CCCCCCCC(=O)Oc1ccc2nc3ccc(=O)cc-3oc2c1; assay: fluorogenic hydrolysis kinetics (Km); format: biochemical, Homo sapiens

With `CCCCC/C=C\C/C=C\C/C=C\C/C=C\CCCC(=O)Oc1ccc2nc3ccc(=O)cc-3oc2c1` [1g, 7-hydroxyresorufinyl arachidonate] the “fluorogenic hydrolysis at 5 μM, normalized to 1c” value [1] was “Normalized hydrolysis of different substrates by hMAGL”.

In the case of `O=C(Nc1cccc(-c2ccccc2)c1)OC1CCCCC1` [URB602], the IC50 [2] is reported as 8.1 µM.

B1: human recombinant monoacylglycerol lipase (hMAGL) (Homo sapiens) (protein)
chain: T1 sequence (Q99685 1-303)
B1 gave a Km [3] of 2.8 µM, a Vmax [3] of 0.0013 µmol/min/mg and a Km [4] of 1.1 µM. For the same molecule, the Vmax [4] was 0.00067 µmol/min/mg, the Km (purified protein) was 0.66 µM and the Vmax (purified protein; catalytic active site near Ser122 (docking only)) was 0.106 µmol/min/mg. For the same molecule, the Km [5] was 1.09 µM, the Vmax [5] was 0.033 µmol/min/mg and the Km [6] was 0.31 µM. It also gave a Vmax [6] of 0.024 µmol/min/mg, a Km [7] of 0.42 µM and a Vmax [7] of 0.013 µmol/min/mg.

— paper PMC6631453, “Set-Up and Validation of a High Throughput Screening Method for Human Monoacylglycerol Lipase (MAGL) Based on a New Red Fluorescent Probe” (Molecules, 2019)
